Source: patent US20170128596A1, “Peptide-Based Compounds and Their Uses for Tumor Imaging and Targeting” (Klinikum rechts der lsar der Technischen Universitaet …, priority 2014, published 2017)

Columns and labels:
[1] = Ex vivo biodistribution in CT26 tumor-bearing mice by NIRF quantification; set-up: species or system mouse; conditions: i.v.
Protocol: Regression equation of linear regression analysis (lower panel). The concentration of TPP[Cy5.5] in organs was calculated using this regression equation. Scale bar, 5 mm.
For biodistribution tumor-bearing mice were sacrificed 12, 24 or 48 h after i.v. injection of TPP[Cy5.5]. Fluorescent signal intensities of 0.25 cm^3 tissue cubes, taken from the tumor, spleen, pancreas, liver, lung, duodenum, kidney, heart, and 0.25 ml of peripheral blood were measured as described above. Agarose-gel cubes with standardized concentrations were used to calculate the probe concentrations in the investigated tissue samples.
After the mice had been sacrificed, the contents of TPP[Cy5.5] in the tumors and organs (spleen, pancreas, liver, lung, duodenum, kidney, heart and blood) were assessed. […] Fluorescence intensities of the tissues were measured as described in the imaging procedures chapter. Quantification of the Cy5.5 contents in the defined tissue volumes was calculated using fluorescence signal intensities of standards with defined concentrations. […] Fluorescence signal intensity was measured using the same instrument settings than for the tissue specimen (FIG. 10, upper panel). […] Linear regression equation of the standards was calculated with Microsoft Excel 2007 (FIG. 10, lower panel). The concentration of TPP[Cy5.5] in organs was calculated using the regression equation.

[2] = Toxicity testing in healthy and tumor-bearing BALB/c mice
Protocol: Concentrations up to 500 μg of TPP per mouse were tested in tumor-bearing mice (s.c. tumors, size 0.4 cm^3). The health status and the general behavior of mice were inspected. Animals were sacrificed on day 5 and the heart, liver, spleen, lung and kidneys examined for pathological changes using standard histological techniques.

[3] = target: membrane-bound Heat shock protein 70 (Hsp70) on murine tumor cells (mouse) (UniProt Q61696); experiment: flow cytometry, single cell suspension of in vivo-grown CT26 murine colon tumor
membrane-bound Heat shock protein 70 (Hsp70) on murine tumor cells (mouse), sequence (Q61696 2-641): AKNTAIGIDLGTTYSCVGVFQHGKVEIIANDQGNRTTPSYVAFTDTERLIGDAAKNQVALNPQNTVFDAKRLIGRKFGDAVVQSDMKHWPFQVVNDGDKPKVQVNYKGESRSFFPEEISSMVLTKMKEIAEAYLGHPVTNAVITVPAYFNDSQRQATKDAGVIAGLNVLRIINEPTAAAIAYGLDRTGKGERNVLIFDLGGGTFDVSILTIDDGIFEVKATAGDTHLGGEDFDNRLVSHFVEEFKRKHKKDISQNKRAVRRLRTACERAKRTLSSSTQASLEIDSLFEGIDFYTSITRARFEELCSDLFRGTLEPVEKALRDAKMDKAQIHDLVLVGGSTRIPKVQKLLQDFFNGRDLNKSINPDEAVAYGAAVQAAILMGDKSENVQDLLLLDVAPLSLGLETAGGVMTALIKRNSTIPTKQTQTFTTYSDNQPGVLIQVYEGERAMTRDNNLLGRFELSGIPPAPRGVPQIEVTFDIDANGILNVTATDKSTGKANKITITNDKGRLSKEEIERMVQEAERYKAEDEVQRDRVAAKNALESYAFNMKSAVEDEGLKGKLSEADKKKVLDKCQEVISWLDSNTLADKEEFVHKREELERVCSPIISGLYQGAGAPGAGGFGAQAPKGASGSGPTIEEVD

[4] = target: membrane-bound Heat shock protein 70 (Hsp70) on human tumor cells (human) (UniProt P0DMV8); experiment: flow cytometry, single cell suspension of in vivo-grown T-47D human mammary tumor
membrane-bound Heat shock protein 70 (Hsp70) on human tumor cells (human), sequence (P0DMV8 2-641): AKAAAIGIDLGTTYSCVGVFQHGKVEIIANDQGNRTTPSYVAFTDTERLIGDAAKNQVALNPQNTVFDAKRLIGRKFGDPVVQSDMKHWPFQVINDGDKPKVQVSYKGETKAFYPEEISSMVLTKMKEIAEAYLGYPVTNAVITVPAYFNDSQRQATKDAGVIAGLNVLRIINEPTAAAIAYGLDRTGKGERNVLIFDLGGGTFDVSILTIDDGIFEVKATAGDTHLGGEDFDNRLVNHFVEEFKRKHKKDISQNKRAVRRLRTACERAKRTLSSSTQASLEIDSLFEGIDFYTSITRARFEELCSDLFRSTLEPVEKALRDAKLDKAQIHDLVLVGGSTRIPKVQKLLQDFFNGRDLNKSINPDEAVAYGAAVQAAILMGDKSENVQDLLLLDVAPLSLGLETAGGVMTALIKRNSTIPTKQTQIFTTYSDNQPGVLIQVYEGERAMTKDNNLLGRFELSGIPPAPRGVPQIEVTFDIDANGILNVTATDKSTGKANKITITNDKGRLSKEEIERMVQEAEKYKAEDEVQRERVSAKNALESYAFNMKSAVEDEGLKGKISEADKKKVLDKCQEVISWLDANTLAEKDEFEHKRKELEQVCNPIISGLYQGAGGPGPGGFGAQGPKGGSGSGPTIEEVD

[5] = target: membrane-bound Heat shock protein 70 (Hsp70) on human tumor cells (human) (UniProt P0DMV8); experiment: flow cytometry, single cell suspension of in vivo-grown CX-2 human colon tumor
[6] = target: membrane-bound Heat shock protein 70 (Hsp70) on murine tumor cells (mouse) (UniProt Q61696); experiment: flow cytometry, single cell suspension of PDAC murine pancreas tumor
[7] = target: membrane-bound Heat shock protein 70 (Hsp70) on human tumor cells (human) (UniProt P0DMV8); experiment: flow cytometry, single cell suspension of in vivo-grown MIA PaCa-2 human pancreas tumor
[8] = target: membrane-bound Heat shock protein 70 (Hsp70) on murine tumor cells (mouse) (UniProt Q61696); experiment: flow cytometry, single cell suspension of in vivo-grown 4T1 murine mammary tumor
[9] = target: membrane-bound Heat shock protein 70 (Hsp70) on human tumor cells (human) (UniProt P0DMV8); experiment: flow cytometry, single cell suspension of in vivo-grown Panc-1 human pancreas tumor
[10] = target: membrane-bound Heat shock protein 70 (Hsp70) on human tumor cells (human) (UniProt P0DMV8); experiment: flow cytometry, single cell suspension of in vivo-grown MDA-MB231 human mammary tumor
[11] = target: membrane-bound Heat shock protein 70 (Hsp70) on human tumor cells (human) (UniProt P0DMV8); experiment: flow cytometry, single cell suspension of in vivo-grown Cal-33 human head & neck tumor
[12] = target: membrane-bound Heat shock protein 70 (Hsp70) on human tumor cells (human) (UniProt P0DMV8); experiment: flow cytometry, single cell suspension of in vivo-grown MCF-7 human mammary tumor
[13] = target: membrane-bound Heat shock protein 70 (Hsp70) on human tumor cells (human) (UniProt P0DMV8); experiment: flow cytometry, single cell suspension of in vivo-grown H-1339 human lung tumor
[14] = target: membrane-bound Heat shock protein 70 (Hsp70) on murine tumor cells (mouse) (UniProt Q61696); experiment: flow cytometry, single cell suspension of CAC murine colon tumor
[15] = target: membrane-bound Heat shock protein 70 (Hsp70) on human tumor cells (human) (UniProt P0DMV8); experiment: flow cytometry, single cell suspension of in vivo-grown A549 human lung tumor
[16] = target: membrane-bound Heat shock protein 70 (Hsp70) on human tumor cells (human) (UniProt P0DMV8); experiment: flow cytometry, single cell suspension of in vivo-grown HCT-116 human colon tumor
[17] = target: membrane-bound Heat shock protein 70 (Hsp70) on human tumor cells (human) (UniProt P0DMV8); experiment: flow cytometry, single cell suspension of in vivo-grown FaDu human head & neck tumor
[18] = target: membrane-bound Heat shock protein 70 (Hsp70) on human tumor cells (human) (UniProt P0DMV8); experiment: flow cytometry, single cell suspension of in vivo-grown COLO357 human pancreas tumor
[19] = target: membrane-bound Heat shock protein 70 (Hsp70) on human tumor cells (human) (UniProt P0DMV8); experiment: flow cytometry, single cell suspension of in vivo-grown HeLa human cervix tumor
[20] = system: MCF7, MDA-MB-231, T47D cells; experiment: Peptide uptake into human breast cancer cell lines by confocal microscopy; type: cell-based; conditions: 30 min at 37° C.
Protocol: Human breast cancer cell lines (MCF7, MDA-MB-231, T47D) expressing different levels of membrane Hsp70 were incubated with CF-TPP or a scrambled peptide for 30 min at 37° C. and internalization of the peptides was imaged by confocal microscopy.

CC(C)C[C@H](NC(=O)[C@H](CC(C)C)NC(=O)[C@H](CC(N)=O)NC(=O)[C@H](CC(N)=O)NC(=O)[C@H](CC(=O)O)NC(=O)[C@H](CCCCN)NC(=O)[C@@H](N)[C@@H](C)O)C(=O)NCC(=O)N[C@@H](CCCNC(=N)N)C(=O)N[C@@H](Cc1ccccc1)C(=O)N[C@@H](CCC(=O)O)C(=O)N[C@@H](CC(C)C)C(=O)N[C@@H](CO)C(=O)NCC(=O)O [TPP, TKDNNLLGRFELSG]
route of clearance [1]: cleared from the body by renal excretion
loss of weight or change in mobility ([2]; BALB/c mice, i.v. 500 to 1050 μg): Nor did any animal exhibit any loss of weight or change in mobility
gross monitoring for toxic reactions (skin ulcerations, toxic death) ([2]; BALB/c mice, i.v. 500 to 1050 μg (25 to 50 μg/g)): did not show any toxic reactions
histological examination of heart, liver, spleen, lung and kidney ([2]; day 5 after injection): no pathological changes
side effects in tumor-bearing mice ([2]; up to 500 μg per mouse): did not exert any side effects

cmHsp70.1 monoclonal antibody (FITC-conjugated for flow cytometry)
% membrane-positive cells [3]: 55.5%
% membrane-positive cells [4]: 48%
% membrane-positive cells [5]: 56.6%
% membrane-positive cells [6]: 50%
% membrane-positive cells [7]: 58.5%
% membrane-positive cells [8]: 56.3%
% membrane-positive cells [9]: 46%
% membrane-positive cells [10]: 63.3%
% membrane-positive cells [11]: 68.1%
% membrane-positive cells [12]: 58%
% membrane-positive cells [13]: 60%
% membrane-positive cells [14]: 51.2%
% membrane-positive cells [15]: 76.3%
% membrane-positive cells [16]: 63.3%
% membrane-positive cells [17]: 59%
% membrane-positive cells [18]: 57.8%
% membrane-positive cells [19]: 55%

NGLTLKNDFSRLEG (scrambled control peptide)
internalization into tumor cells [20]: not internalized
